Results on two substances are retold here after paper PMC3457997.

Experiment [1] has as its target CD95(1–66)-mCherry (human). The experiment can be described thus: SEC; concentrated serum-free supernatants of transfected HEK cells on Sephacryl S-300 and S-200 High Resolution columns in PBS, 0.5 mL/min; fractions analysed by immunoblot with anti-DsRed. In general terms: In gel filtration, larger molecules generally elute earlier.
For experiment [2], the target named is CD95(1–158)-mCherry (human). Described as above.

Usually stoichiometry N stands for a count of units in the complex or per binding partner.

Turning to CD95(1–66)-mCherry (domain or fragment), in experiment [1], the stoichiometry N turned out to be 2.

“CD95(1–158)-mCherry (domain or fragment)” came in with a stoichiometry N in experiment [2] of 3.
